Measured values from patent US20260226168A1 (CHIA TAI TIANQING PHARMACEUTICAL GROUP, published 2026).

B1: GC35 (bispecific antibody, human IgG1, kappa, L234A L235A)
heavy: EVQLVQSGAEVVKPGASVKMSCKASGYTFTNYVMHWVKQAPGQGLEWMGYFNPYNDGTNYNEKFKGRVTLTSDTSANTAYMELSSLRSEDTAVYYCARGGVRRYFDVWGQGTTVTVSSASTKGPSVFPLAPSSKSTSGGTAALGCLVKDYFPEPVTVSWNSGALTSGVHTFPAVLQSSGLYSLSSVVTVPSSSLGTQTYICNVNHKPSNTKVDKKVEPKSCDKTHTCPPCPAPEAAGGPSVFLFPPKPKDTLMISRTPEVTCVVVDVSHEDPEVKFNWYVDGVEVHNAKTKPREEQYNSTYRVVSVLTVLHQDWLNGKEYKCKVSNKALAAPIEKTISKAKGQPREPQVCTLPPSREEMTKNQVSLSCAVKGFYPSDIAVEWESNGQPENNYKTTPPVLDSDGSFFLVSKLTVDKSRWQQGNVFSCSVMHEALHNHYTQKSLSLSPGK
light: DIQMTQSPSSLSASVGDRVTITCRASQDIGSNLNWLQLGPGGAIKRLIYATFSLDSGVPSRFSGSRSGSDYTLTISSLQPEDFVDYYCQQYANFPPTFGGGTKVEIKRTVAAPSVFIFPPSDEQLKSGTASVVCLLNNFYPREAKVQWKVDNALQSGNSQESVTEQDSKDSTYSLSSTLTLSKADYEKHKVYACEVTHQGLSSPVTKSFNRGEC
scFv: ELVVTQEPSLTTSPGGTVTLTCRSSTGAVTTSNYANWVQQKPGQAPRGLIGGTNKRAPGTPARFSGSLLGGKAALTITGVQPEDEAEYYCALWYSNLWVFGGGTKLTVLGGGGSGGGGSGGGGSEVQLVESGGGLVQPGGSLRLSCAASGFTFNTYAMNWVRQAPGKGLEWVARIRSKYNNYATYYADSVKDRFTISRDDSKNTAYLQMNNLKTEDTAMYYCVRHGNFGNSYVSWFAYWGQGTLVTVSSGEPKSSDKTHTCPPCPAPEAAGGPSVFLFPPKPKDTLMISRTPEVTCVVVDVSHEDPEVKFNWYVDGVEVHNAKTKPREEQYNSTYRVVSVLTVLHQDWLNGKEYKCKVSNKALAAPIEKTISKAKGQPREPQVYTLPPCREEMTKNQVSLWCLVKGFYPSDIAVEWESNGQPENNYKTTPPVLDSDGSFFLYSKLTVDKSRWQQGNVFSCSVMHEALHNRYTQKSLSLSPGK
notes: also called anti-GPRC5D/anti-CD3 bispecific antibody GC35
B2: GC39 (bispecific antibody, human IgG1, kappa, L234A L235A)
heavy: EVQLVESGGGLVQPGGSRRVSCAASGFTFSSFGMHWVRQAPGKGLEWVAYISRGSSTIYYADTVKGRFTISRDNAKNSLYLQMNSLRAEDTAVYYCARSGYGSSSYYFDYWGQGTTVTVSSASTKGPSVFPLAPSSKSTSGGTAALGCLVKDYFPEPVTVSWNSGALTSGVHTFPAVLQSSGLYSLSSVVTVPSSSLGTQTYICNVNHKPSNTKVDKKVEPKSCDKTHTCPPCPAPEAAGGPSVFLFPPKPKDTLMISRTPEVTCVVVDVSHEDPEVKFNWYVDGVEVHNAKTKPREEQYNSTYRVVSVLTVLHQDWLNGKEYKCKVSNKALAAPIEKTISKAKGQPREPQVCTLPPSREEMTKNQVSLSCAVKGFYPSDIAVEWESNGQPENNYKTTPPVLDSDGSFFLVSKLTVDKSRWQQGNVFSCSVMHEALHNHYTQKSLSLSPGK
light: EIVLTQSPATLSASPGERATMSCRASSSIRSSYLHWYQQKPGQSPRLWIYSTSNLASGVPARFSGSGSGTDYTLTISSLEPEDAAVYYCQQFSGYPLTFGGGTKVEIKRTVAAPSVFIFPPSDEQLKSGTASVVCLLNNFYPREAKVQWKVDNALQSGNSQESVTEQDSKDSTYSLSSTLTLSKADYEKHKVYACEVTHQGLSSPVTKSFNRGEC
scFv: ELVVTQEPSLTTSPGGTVTLTCRSSTGAVTTSNYANWVQQKPGQAPRGLIGGTNKRAPGTPARFSGSLLGGKAALTITGVQPEDEAEYYCALWYSNLWVFGGGTKLTVLGGGGSGGGGSGGGGSEVQLVESGGGLVQPGGSLRLSCAASGFTFNTYAMNWVRQAPGKGLEWVARIRSKYNNYATYYADSVKDRFTISRDDSKNTAYLQMNNLKTEDTAMYYCVRHGNFGNSYVSWFAYWGQGTLVTVSSGEPKSSDKTHTCPPCPAPEAAGGPSVFLFPPKPKDTLMISRTPEVTCVVVDVSHEDPEVKFNWYVDGVEVHNAKTKPREEQYNSTYRVVSVLTVLHQDWLNGKEYKCKVSNKALAAPIEKTISKAKGQPREPQVYTLPPCREEMTKNQVSLWCLVKGFYPSDIAVEWESNGQPENNYKTTPPVLDSDGSFFLYSKLTVDKSRWQQGNVFSCSVMHEALHNRYTQKSLSLSPGK
notes: also called anti-GPRC5D/anti-CD3 bispecific antibody GC39
B3: Talquetamab (bispecific antibody, human IgG4 S228P, kappa, lambda, F234A L235A)
heavy 1: not shown
light 1: DIQMTQSPSSLSASVGDRVTITCKASQNVATHVGWYQQKPGKAPKRLIYSASYRYSGVPSRFSGSGSGTEFTLTISNLQPEDFATYYCQQYNRYPYTFGQGTKLEIKRTVAAPSVFIFPPSDEQLKSGTASVVCLLNNFYPREAKVQWKVDNALQSGNSQESVTEQDSKDSTYSLSSTLTLSKADYEKHKVYACEVTHQGLSSPVTKSFNRGEC
heavy 2: EVQLVESGGGLVQPGGSLRLSCAASGFTFNTYAMNWVRQAPGKGLEWVARIRSKYNNYATYYAASVKGRFTISRDDSKNSLYLQMNSLKTEDTAVYYCARHGNFGNSYVSWFAYWGQGTLVTVSSASTKGPSVFPLAPCSRSTSESTAALGCLVKDYFPEPVTVSWNSGALTSGVHTFPAVLQSSGLYSLSSVVTVPSSSLGTKTYTCNVDHKPSNTKVDKRVESKYGPPCPPCPAPEAAGGPSVFLFPPKPKDTLMISRTPEVTCVVVDVSQEDPEVQFNWYVDGVEVHNAKTKPREEQFNSTYRVVSVLTVLHQDWLNGKEYKCKVSNKGLPSSIEKTISKAKGQPREPQVYTLPPSQEEMTKNQVSLTCLVKGFYPSDIAVEWESNGQPENNYKTTPPVLDSDGSFLLYSKLTVDKSRWQEGNVFSCSVMHEALHNHYTQKSLSLSLGK
light 2: QTVVTQEPSLTVSPGGTVTLTCRSSTGAVTTSNYANWVQQKPGQAPRGLIGGTNKRAPGTPARFSGSLLGGKAALTLSGVQPEDEAEYYCALWYSNLWVFGGGTKLTVLGQPKAAPSVTLFPPSSEELQANKATLVCLISDFYPGAVTVAWKADSSPVKAGVETTTPSKQSNNKYAASSYLSLTPEQWKSHRSYSCQVTHEGSTVEKTVAPTECS
notes: Four polypeptide chains (anti-GPRC5D-HC/LC, anti-CD3-HC/LC); made in house by in vitro assembly of the two parental monoclonal antibodies with 2-MEA; also called benchmark; BM

Molecular target: T1, T cell surface CD3 (human, UniProt P07766 23-207)
T1 construct: whole, on cells
Experiment: flow cytometry on human CD3+ T cells
Experimental: Human PBMCs (peripheral blood mononuclear cells) were sorted for CD3⁺ T cells using CD3 magnetic beads (Miltenyi, Cat. No. 130-097-043). The cryopreserved PBMCs were thawed, and washed by centrifugation twice for counting. The running buffer (MACS, Cat. No. 130-091-221) was added at a ratio of 80 μL per 10⁷ cells, and the CD3 magnetic beads were added at a ratio of 20 μL CD3 magnetic beads per 10⁷ cells. The mixture was mixed well and incubated at 4° C. for 15 min. The running buffer was added at a ratio of 1-2 mL per 10⁷ cells for washing the cells. The mixture was centrifuged, the supernatant was discarded, and 500 μL of running buffer was added to resuspend the cell pellet. The LS sorting column (Miltenyi, Cat. No. 130-042-401) was placed on the MidiMACS Starting Kit (LS) magnetic rack (Miltenyi, Cat. No. 130-091-051). After rinsing, the cell suspension was added and washed thrice. The LS sorting column was removed from the magnetic rack and placed on a clean centrifuge tube and 5 mL buffer was added to collect the sorted CD3⁺ T cells.
After counting, the CD3⁺ T cells were adjusted to a cell density of 1×10⁶-2×10⁶ cells/mL using running buffer, and seeded in a 96-well U-bottom cell culture plate (Costar, Cat. No. 3799) at 50 μL per well. Different concentrations of the anti-GPRC5D/anti-CD3 bispecific antibodies were prepared using running buffer. The highest concentration of the antibodies was 200 nM, and the antibodies were serially diluted 5-fold to obtain a total of 10 concentration gradients. The antibodies at different concentrations were added to the 96-well cell culture plate described above at 50 μL per well, mixed well and incubated at 4° C. for 1 h. The cells were washed with pre-cooled running buffer (MACS, Cat. No. 130-091-221), and then the supernatant was discarded. Pre-cooled PE-conjugated goat anti-human IgG Fcγ antibody (Jackson Immuno Research, Cat. No. 109-116-170) was added, and the cells were resuspended at 100 μL/well. The mixture was mixed well and incubated at 4° C. for 30 min. […]

T1 sequence (P07766 23-207): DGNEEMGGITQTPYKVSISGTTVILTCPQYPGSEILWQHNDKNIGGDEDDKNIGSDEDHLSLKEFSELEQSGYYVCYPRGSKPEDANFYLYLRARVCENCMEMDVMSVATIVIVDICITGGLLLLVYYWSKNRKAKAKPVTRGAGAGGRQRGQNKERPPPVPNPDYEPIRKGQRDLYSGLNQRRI

| Binder | Top(MFI) |
| --- | --- |
| B1 | 54700 |
| B2 | 38000 |
| B3 | 155000 |
